Experiments:
EPHB2 = EPHB2 (UniProt P29323); assay: phosphorylation enrichment, bacterial display (enrichment ratio); higher = better substrate or ligand; peptides without Tyr show the background
Jak2 = Jak2 (UniProt O60674); assay: as above
FGFR1 = FGFR1 (UniProt P11362); assay: as above
c-Src = assay: as above
Hck = Hck (UniProt P08631); assay: as above
Fyn = Fyn (UniProt P06241); assay: as above
c-Abl (mouse) = assay: as above
Fes = Fes (UniProt P07332); assay: as above
MERTK = MERTK (UniProt Q12866); assay: as above
AncSZ = assay: as above
FGFR3 = FGFR3 (UniProt P22607); assay: as above
Sequence of FGFR3 (P22607 whole entry, looked up): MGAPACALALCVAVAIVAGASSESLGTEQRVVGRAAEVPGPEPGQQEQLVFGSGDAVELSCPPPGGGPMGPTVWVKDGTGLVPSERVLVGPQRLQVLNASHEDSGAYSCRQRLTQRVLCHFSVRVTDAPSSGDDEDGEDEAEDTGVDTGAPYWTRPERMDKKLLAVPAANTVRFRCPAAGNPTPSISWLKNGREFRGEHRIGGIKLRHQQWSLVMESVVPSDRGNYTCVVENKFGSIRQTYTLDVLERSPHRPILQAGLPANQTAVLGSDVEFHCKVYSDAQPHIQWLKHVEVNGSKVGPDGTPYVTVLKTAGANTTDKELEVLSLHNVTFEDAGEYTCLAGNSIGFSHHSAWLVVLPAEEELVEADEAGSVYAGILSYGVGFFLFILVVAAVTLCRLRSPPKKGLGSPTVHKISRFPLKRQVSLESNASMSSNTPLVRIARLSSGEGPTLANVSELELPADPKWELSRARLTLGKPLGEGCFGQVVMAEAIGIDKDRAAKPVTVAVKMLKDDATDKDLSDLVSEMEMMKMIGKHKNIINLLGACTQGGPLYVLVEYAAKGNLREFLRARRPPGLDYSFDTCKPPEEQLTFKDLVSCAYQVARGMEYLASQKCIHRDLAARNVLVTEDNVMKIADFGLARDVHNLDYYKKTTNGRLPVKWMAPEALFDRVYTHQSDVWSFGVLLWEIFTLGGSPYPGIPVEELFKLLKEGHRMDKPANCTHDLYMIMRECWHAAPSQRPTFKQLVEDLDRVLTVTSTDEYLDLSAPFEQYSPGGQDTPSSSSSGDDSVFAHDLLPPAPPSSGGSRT

EPHB1 = EPHB1 (UniProt P54762); assay: as above
Sequence of EPHB1 (P54762 whole entry, looked up): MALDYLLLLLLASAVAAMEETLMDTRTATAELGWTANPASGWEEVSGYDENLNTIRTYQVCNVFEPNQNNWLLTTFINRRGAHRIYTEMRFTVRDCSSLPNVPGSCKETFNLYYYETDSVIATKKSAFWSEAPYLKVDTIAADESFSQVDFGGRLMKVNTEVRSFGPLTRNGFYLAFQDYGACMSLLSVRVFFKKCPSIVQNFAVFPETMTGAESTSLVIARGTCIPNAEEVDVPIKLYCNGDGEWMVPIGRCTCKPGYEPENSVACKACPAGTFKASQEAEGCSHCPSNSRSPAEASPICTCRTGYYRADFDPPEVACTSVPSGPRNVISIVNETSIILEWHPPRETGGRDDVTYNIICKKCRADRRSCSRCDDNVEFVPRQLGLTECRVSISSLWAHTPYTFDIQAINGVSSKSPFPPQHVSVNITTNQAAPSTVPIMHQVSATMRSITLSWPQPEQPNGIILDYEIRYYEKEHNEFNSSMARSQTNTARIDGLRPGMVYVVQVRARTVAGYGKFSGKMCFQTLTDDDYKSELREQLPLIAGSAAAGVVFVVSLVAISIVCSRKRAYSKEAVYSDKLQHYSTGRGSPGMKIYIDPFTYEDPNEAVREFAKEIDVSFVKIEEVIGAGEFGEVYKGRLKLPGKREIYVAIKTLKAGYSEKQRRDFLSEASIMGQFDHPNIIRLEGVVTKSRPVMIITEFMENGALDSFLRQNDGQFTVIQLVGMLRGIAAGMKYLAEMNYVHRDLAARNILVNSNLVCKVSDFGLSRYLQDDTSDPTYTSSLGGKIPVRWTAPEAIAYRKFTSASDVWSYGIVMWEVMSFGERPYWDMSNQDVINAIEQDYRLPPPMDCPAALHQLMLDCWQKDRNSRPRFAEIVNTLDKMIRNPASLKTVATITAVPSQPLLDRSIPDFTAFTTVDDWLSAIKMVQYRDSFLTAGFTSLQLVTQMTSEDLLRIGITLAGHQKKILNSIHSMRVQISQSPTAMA

Fer (mouse) = assay: as above
Grb2 SH2 = Grb2 SH2 (UniProt P62993); assay: SH2 binding enrichment of the phosphorylated peptide, bacterial display (enrichment ratio); higher = better substrate or ligand; peptides without Tyr show the background
Sequence of Grb2 SH2 (P62993 whole entry, looked up): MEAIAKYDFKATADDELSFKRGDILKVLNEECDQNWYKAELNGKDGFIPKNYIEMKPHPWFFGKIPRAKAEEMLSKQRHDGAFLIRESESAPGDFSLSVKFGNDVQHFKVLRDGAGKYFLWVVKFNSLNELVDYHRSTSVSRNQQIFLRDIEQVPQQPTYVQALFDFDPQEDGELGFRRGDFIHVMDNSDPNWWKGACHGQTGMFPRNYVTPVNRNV

SHP2-C SH2 = assay: as above
c-Src SH2 = assay: as above
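Throughout, for SH2 binding enrichment of the phosphorylated peptide, bacterial display: peptide library displayed on the E. coli surface as eCPX fusions, selected cells deep-sequenced, score is each peptide's frequency after selection divided by its frequency in the input.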
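Throughout, for phosphorylation enrichment, bacterial display: 11-residue human phosphosite peptides and single-mutation variants displayed on the E. coli surface, counted by deep sequencing, each peptide's frequency after selection divided by its frequency in the unselected input library; frequency after pTyr selection over input frequency; kinase dosed for 20-30% of maximal phosphorylation in three min.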

Sequence of Fes (P07332 whole entry, looked up): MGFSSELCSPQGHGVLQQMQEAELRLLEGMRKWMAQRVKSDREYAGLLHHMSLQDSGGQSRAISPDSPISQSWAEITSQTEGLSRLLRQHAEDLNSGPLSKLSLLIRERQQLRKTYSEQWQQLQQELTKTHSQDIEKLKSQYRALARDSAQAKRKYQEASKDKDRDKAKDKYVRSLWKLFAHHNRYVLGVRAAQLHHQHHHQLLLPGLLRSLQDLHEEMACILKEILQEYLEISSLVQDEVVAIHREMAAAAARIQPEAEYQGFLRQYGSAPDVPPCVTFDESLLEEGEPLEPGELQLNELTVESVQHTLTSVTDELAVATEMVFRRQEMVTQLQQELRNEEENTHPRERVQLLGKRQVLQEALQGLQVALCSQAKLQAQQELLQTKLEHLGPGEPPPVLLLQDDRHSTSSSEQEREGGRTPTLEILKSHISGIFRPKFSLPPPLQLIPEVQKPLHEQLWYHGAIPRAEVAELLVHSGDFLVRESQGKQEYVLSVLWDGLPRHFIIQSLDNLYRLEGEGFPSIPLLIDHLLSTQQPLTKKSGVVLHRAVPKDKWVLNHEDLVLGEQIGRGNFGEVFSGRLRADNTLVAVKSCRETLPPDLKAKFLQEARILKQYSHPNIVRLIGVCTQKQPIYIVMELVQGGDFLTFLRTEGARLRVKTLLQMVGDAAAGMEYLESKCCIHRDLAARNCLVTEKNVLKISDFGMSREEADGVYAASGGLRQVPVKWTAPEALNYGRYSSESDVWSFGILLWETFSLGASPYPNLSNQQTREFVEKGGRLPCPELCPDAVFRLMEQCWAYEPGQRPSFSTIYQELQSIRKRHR
Sequence of Jak2 (O60674 whole entry, looked up): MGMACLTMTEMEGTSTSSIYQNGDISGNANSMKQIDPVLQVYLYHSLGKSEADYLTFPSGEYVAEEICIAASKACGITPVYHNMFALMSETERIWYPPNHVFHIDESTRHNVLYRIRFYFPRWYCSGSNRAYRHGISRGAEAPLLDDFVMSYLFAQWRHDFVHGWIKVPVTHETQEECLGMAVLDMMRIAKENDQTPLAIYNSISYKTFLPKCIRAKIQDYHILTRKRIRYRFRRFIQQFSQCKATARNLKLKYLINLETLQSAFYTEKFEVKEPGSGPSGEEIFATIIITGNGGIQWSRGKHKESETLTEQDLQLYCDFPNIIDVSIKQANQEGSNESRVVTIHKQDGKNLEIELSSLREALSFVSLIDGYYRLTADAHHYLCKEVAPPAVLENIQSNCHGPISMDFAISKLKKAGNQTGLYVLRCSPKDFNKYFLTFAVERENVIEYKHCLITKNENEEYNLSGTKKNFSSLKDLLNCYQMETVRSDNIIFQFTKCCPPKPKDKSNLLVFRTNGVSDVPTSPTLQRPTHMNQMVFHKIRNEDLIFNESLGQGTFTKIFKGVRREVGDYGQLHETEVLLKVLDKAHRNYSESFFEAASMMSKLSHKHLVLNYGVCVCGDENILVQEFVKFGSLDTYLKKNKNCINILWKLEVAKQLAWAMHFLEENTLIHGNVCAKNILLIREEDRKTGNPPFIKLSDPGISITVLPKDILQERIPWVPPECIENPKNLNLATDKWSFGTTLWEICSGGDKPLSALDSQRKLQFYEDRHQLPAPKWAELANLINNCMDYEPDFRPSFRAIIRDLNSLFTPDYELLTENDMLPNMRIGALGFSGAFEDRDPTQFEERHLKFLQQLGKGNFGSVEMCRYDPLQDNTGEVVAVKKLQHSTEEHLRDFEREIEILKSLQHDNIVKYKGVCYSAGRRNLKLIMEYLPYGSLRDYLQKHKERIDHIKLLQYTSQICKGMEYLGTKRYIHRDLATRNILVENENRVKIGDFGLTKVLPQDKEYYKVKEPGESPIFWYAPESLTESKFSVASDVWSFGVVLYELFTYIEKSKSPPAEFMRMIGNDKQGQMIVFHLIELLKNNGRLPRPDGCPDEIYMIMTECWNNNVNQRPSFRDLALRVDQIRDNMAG
Sequence of Fyn (P06241 whole entry, looked up): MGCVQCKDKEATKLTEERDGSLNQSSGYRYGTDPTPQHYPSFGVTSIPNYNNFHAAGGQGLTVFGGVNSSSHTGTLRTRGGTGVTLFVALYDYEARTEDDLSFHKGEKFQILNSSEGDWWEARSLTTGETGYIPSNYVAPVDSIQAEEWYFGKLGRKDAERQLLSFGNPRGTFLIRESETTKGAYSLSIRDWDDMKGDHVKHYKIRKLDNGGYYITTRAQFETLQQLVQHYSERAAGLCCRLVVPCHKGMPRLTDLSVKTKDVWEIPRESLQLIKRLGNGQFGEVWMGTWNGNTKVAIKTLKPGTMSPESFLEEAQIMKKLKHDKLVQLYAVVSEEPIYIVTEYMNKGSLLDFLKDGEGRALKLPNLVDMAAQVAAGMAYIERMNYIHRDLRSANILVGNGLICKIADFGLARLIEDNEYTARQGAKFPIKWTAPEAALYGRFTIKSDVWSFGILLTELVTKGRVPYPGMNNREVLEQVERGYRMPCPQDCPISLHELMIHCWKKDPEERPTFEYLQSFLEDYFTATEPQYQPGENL
Sequence of Hck (P08631 whole entry, looked up): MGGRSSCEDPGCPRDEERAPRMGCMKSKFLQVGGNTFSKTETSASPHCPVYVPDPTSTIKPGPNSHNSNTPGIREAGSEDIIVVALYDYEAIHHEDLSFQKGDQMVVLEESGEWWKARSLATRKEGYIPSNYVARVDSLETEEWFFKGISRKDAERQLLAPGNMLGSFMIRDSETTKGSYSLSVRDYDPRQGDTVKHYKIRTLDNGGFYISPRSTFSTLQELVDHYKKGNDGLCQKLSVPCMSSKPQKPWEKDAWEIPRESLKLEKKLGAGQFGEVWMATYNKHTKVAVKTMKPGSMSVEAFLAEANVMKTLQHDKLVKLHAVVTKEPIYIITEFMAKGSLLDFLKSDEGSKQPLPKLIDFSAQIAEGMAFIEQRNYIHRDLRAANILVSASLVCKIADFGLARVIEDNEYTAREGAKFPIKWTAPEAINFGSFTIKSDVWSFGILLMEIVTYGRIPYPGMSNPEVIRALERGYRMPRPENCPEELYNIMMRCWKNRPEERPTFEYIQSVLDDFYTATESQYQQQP

Row | Sequence | phosphorylation enrichment (EPHB2) | phosphorylation enrichment (Jak2) | phosphorylation enrichment (FGFR1) | phosphorylation enrichment (c-Src) | phosphorylation enrichment (Hck) | phosphorylation enrichment (Fyn) | phosphorylation enrichment (c-Abl (mouse)) | phosphorylation enrichment (Fes) | phosphorylation enrichment (MERTK) | phosphorylation enrichment (AncSZ) | phosphorylation enrichment (FGFR3) | phosphorylation enrichment (EPHB1) | phosphorylation enrichment (Fer (mouse)) | SH2 binding enrichment (Grb2 SH2) | SH2 binding enrichment (SHP2-C SH2) | SH2 binding enrichment (c-Src SH2)
1 | QQTFTYDSGIH [JUP_Y22_YF] | 1.33 | 0.985 | 0.984 | 0.95 | 1.85 | 1.18 | 0.999 | 1.78 | 0.793 | 1.8 | 1.42 | 1.35 | 0.896 | 0.673 | 0.809 | 0.563
2 | EAEPFYRSLRD [NPHS1_Y1139_YF] | 0.545 | 0.893 | 0.536 | 0.53 | 0.644 | 0.433 | 0.743 | 1.18 | 0.539 | 0.792 | 0.707 | 0.461 | 0.451 | 1.19 | 0.628 | 0.521
3 | ETKRPYTVILI [SBDS_Y128] | 0.527 | 1.01 | 0.582 | 0.458 | 0.481 | 0.457 | 0.825 | 1.15 | 0.479 | 1.06 | 0.722 | 0.57 | 1.16 | 0.838 | 0.877 | 1.05
4 | KHGGNYVPAPE [OSCP1_Y237_K242E] | 0.471 | 0.471 | 0.403 | 0.405 | 0.325 | 0.398 | 0.455 | 0.626 | 0.345 | 0.754 | 0.477 | 0.369 | 0.36 | 0.619 | 0.614 | 0.456
5 | NHFKICNLCAE [PTEN_Y68_Y68C_YF] | 0.468 | 0.682 | 0.401 | 0.486 | 0.413 | 0.415 | 0.75 | 0.687 | 0.484 | 0.609 | 0.544 | 0.461 | 0.4 | 1.33 | 1.4 | 1.11
6 | PMQMPYDSRWE [PDGFRA_Y582_L580M] | 0.801 | 2.03 | 0.865 | 1.49 | 0.794 | 0.374 | 1.96 | 1.47 | 0.728 | 1.52 | 1.1 | 0.835 | 0.671 | 0.615 | 0.721 | 0.601
7 | LLANAYIYDVQ [L1CAM_Y418_V421D] | 1.56 | 1.22 | 0.391 | 3.69 | 4.13 | 6.7 | 0.538 | 1.27 | 2.71 | 1.17 | 0.616 | 1.46 | 0.802 | 0.803 | 1.13 | 0.818
8 | QGIIIYKAAYF [SLC25A4_Y187_R188K] | 1.04 | 2.63 | 0.948 | 1.06 | 0.647 | 0.53 | 1.85 | 2.36 | 1.04 | 1.66 | 1.2 | 0.94 | 1.01 | 0.708 | 0.942 | 0.391
9 | RRIHSYRGFLW [VHL_Y112_H115Y_YF] | 1.73 | 0.577 | 0.389 | 0.552 | 0.377 | 0.577 | 0.426 | 0.575 | 0.577 | 0.622 | 0.378 | 0.343 | 0.458 | 0.801 | 0.666 | 0.581
10 | SLIDGYFRLTA [JAK2_Y372_YF] | 0.716 | 5.46 | 0.605 | 0.483 | 0.583 | 0.493 | 0.732 | 1.26 | 0.429 | 1.1 | 0.875 | 0.539 | 0.514 | 1.01 | 5.5 | 1.13
11 | YQKDVYDIPPS [NEDD9_Y177] | 3.2 | 0.614 | 0.528 | 3.26 | 3.38 | 3.66 | 0.734 | 0.735 | 7.34 | 0.954 | 0.499 | 0.788 | 0.611 | 0.852 | 0.531 | 0.532
12 | KIFPEYLSNWT [AIFM1_Y347_L344F] | 0.512 | 1.18 | 0.811 | 0.479 | 0.488 | 0.43 | 0.657 | 0.916 | 0.47 | 0.914 | 0.721 | 0.513 | 0.502 | 0.944 | 0.614 | 0.628
13 | LTRDIYKNDYY [ROS1_Y2110_A2106T] | 2.79 | 2.28 | 5.83 | 2.86 | 1.48 | 1.82 | 1.21 | 1.88 | 0.839 | 2.28 | 3.61 | 2.15 | 1 | 1.35 | 0.906 | 1.53
14 | PSGPTYRGAVP [ASAH1_Y43] | 0.509 | 0.611 | 0.58 | 0.878 | 0.583 | 0.602 | 0.489 | 0.698 | 0.58 | 0.772 | 0.503 | 0.757 | 0.417 | 0.876 | 0.74 | 0.519
15 | PSRKDYETFQS [CTNND2_Y1154_P1159S_YF] | 0.792 | 0.553 | 0.769 | 0.729 | 0.54 | 0.845 | 1.94 | 0.977 | 0.614 | 0.853 | 0.751 | 0.91 | 0.518 | 0.76 | 0.55 | 0.439
16 | LPKVSCVKAID [GLRA1_Y307_Y307C] | 0.711 | 0.945 | 0.734 | 0.386 | 0.695 | 0.655 | 0.803 | 1.38 | 0.501 | 1.19 | 1.14 | 0.794 | 0.577 | 0.713 | 0.35 | 0.697
17 | VREIRCQGGNR [VWF_Y1570_Y1570C] | 0.432 | 0.771 | 0.478 | 0.5 | 0.465 | 0.401 | 0.675 | 0.682 | 0.406 | 0.648 | 0.419 | 0.416 | 0.296 | 0.963 | 0.591 | 0.477

Row | Sequence | phosphorylation enrichment (EPHB2) | phosphorylation enrichment (Jak2) | phosphorylation enrichment (FGFR1) | phosphorylation enrichment (c-Src) | phosphorylation enrichment (Hck) | phosphorylation enrichment (Fyn) | phosphorylation enrichment (c-Abl (mouse)) | phosphorylation enrichment (Fes) | phosphorylation enrichment (MERTK) | phosphorylation enrichment (AncSZ) | phosphorylation enrichment (FGFR3) | phosphorylation enrichment (EPHB1) | phosphorylation enrichment (Fer (mouse)) | SH2 binding enrichment (Grb2 SH2) | SH2 binding enrichment (SHP2-C SH2) | SH2 binding enrichment (c-Src SH2)
18 | VGNAAYQAGSL [STK36_Y1181_P1185S] | 0.37 | 0.466 | 0.552 | 0.361 | 0.37 | 0.401 | 0.448 | 0.598 | 0.312 | 0.565 | 0.446 | 0.437 | 0.436 | 0.668 | 0.705 | 0.356
19 | FVSAAYVKKLD [SPTAN1_Y1020_P1017S] | 0.618 | 0.403 | 0.421 | 0.382 | 0.374 | 0.365 | 0.511 | 0.65 | 0.337 | 0.663 | 0.455 | 0.414 | 0.365 | 0.885 | 0.804 | 0.379
20 | WKEIEYEVVRD [CPS1_Y634] | 1.2 | 0.899 | 0.549 | 0.473 | 0.609 | 0.553 | 0.573 | 1.09 | 0.384 | 1.31 | 0.754 | 0.701 | 0.583 | 0.697 | 0.65 | 0.524
21 | CTLTHYKSAVK [ASNS_Y555_R550C] | 0.431 | 0.689 | 0.514 | 0.408 | 0.518 | 0.387 | 0.529 | 0.749 | 0.428 | 0.807 | 0.529 | 0.564 | 0.51 | 0.942 | 0.682 | 0.585
22 | PEQAAYQKVVA [HBB_Y131_V127E] | 0.811 | 1.08 | 0.519 | 0.472 | 0.561 | 0.462 | 1 | 1.07 | 0.483 | 0.591 | 0.524 | 0.613 | 0.681 | 0.782 | 0.497 | 0.669
23 | VFSTDCFRVGG [NTRK2_Y706_Y706C_YF] | 0.462 | 1.07 | 0.565 | 0.44 | 0.685 | 0.945 | 1.04 | 0.971 | 0.549 | 1.02 | 0.602 | 0.588 | 0.761 | 0.87 | 1.13 | 0.816
24 | LQTYHYHGHSM [PDHA1_Y289_R288H] | 0.636 | 1.52 | 1.16 | 0.916 | 0.742 | 0.671 | 0.559 | 0.943 | 0.911 | 0.974 | 0.963 | 0.689 | 0.75 | 1.36 | 2 | 1.29
25 | VRSTEYPCAGL | 0.483 | 0.713 | 0.447 | 0.471 | 0.338 | 0.397 | 0.611 | 0.798 | 0.362 | 0.586 | 0.497 | 0.554 | 0.292 | 1.03 | 1.08 | 0.615
26 | HRGFLYLAIEY [TEK_Y899_Y897F] | 0.541 | 1.49 | 0.549 | 0.541 | 0.743 | 0.54 | 1.47 | 1.76 | 0.703 | 1.5 | 0.891 | 0.986 | 0.791 | 1.15 | 0.77 | 0.45
27 | VLTSTYRGGGG [HBA1_Y141_K140T] | 0.376 | 0.509 | 0.361 | 0.394 | 0.377 | 0.38 | 0.425 | 0.628 | 0.367 | 0.575 | 0.483 | 0.315 | 0.385 | 0.84 | 0.645 | 0.452
28 | SVMAEYGLFGA [VSX2_Y219_YF] | 0.596 | 0.679 | 0.488 | 6.17 | 2.94 | 7.22 | 0.594 | 0.774 | 0.475 | 0.737 | 0.553 | 0.477 | 0.424 | 0.86 | 0.719 | 0.471
29 | SDTGQYQCLVF [AXL_Y115] | 0.9 | 0.969 | 1.65 | 1.64 | 3.09 | 2.03 | 1.86 | 1.26 | 1.77 | 1.33 | 1.65 | 0.867 | 2.7 | 0.582 | 0.563 | 0.449
30 | SLAARYYNWVS [FLT4_Y1230] | 0.83 | 1.48 | 5.38 | 0.746 | 0.569 | 0.512 | 0.933 | 1.15 | 5.97 | 1.06 | 3.55 | 0.756 | 0.817 | 14.2 | 2.19 | 3.84
31 | WQQQSYLDSVI [CTNNB1_Y30_G34V] | 0.668 | 0.908 | 0.579 | 0.496 | 0.529 | 0.504 | 0.806 | 1.03 | 0.406 | 0.983 | 0.716 | 0.511 | 0.469 | 0.757 | 0.509 | 0.444
32 | VTRLRYPVCFG [ITK_Y336] | 0.543 | 0.825 | 0.467 | 0.467 | 0.555 | 0.453 | 0.756 | 1.07 | 0.471 | 0.815 | 0.877 | 0.528 | 0.487 | 1.05 | 1.01 | 1.06
33 | TFVVLYDAELT [ERCC4_Y581_R576T_YF] | 1.03 | 1.49 | 0.696 | 0.596 | 0.568 | 0.712 | 0.979 | 1.61 | 0.724 | 1.31 | 0.92 | 1.18 | 0.669 | 1.38 | 1.73 | 0.893
34 | LSCVIYVILRK [PMP22_Y153_G150C] | – | 1.83 | – | 1.06 | – | – | 1.39 | – | – | – | – | – | – | 2.2 | 2.02 | 1.75

From the supplement of paper PMC10065799, “High-throughput profiling of sequence recognition by tyrosine kinases and SH2 domains using bacterial peptide display” (eLife, 2023)
